Assay results published in patent USRE50957E1, “Molecular rheostat for cofactor balance” (The Regents of the University of California, priority 2016, dated 2026).

Experiments:
[1] = substrate: NC(=O)c1ccc[n+]([C@@H]2O[C@H](COP(=O)([O-])OP(=O)(O)OC[C@H]3O[C@@H](n4cnc5c(N)ncnc54)[C@H](OP(=O)(O)O)[C@@H]3O)[C@@H](O)[C@H]2O)c1; assay: purified protein, by the assay type; settings: other: gapDH WT, cofactor, 50 mM tris pH 7.5, 340 nm
[2] = substrate: NC(=O)c1ccc[n+]([C@@H]2O[C@H](COP(=O)([O-])OP(=O)(O)OC[C@H]3O[C@@H](n4cnc5c(N)ncnc54)[C@H](OP(=O)(O)O)[C@@H]3O)[C@@H](O)[C@H]2O)c1; assay: Kinetics and cofactor specificity of triple mutant mGap (mGapDH); format: biochemical, G. stearothermophilus ATCC12980; settings: other: mGapDH, cofactor, 50 mM tris pH 7.5, 340 nm
Experimental: Enzyme activity and optimization. All of the enzymes used in this work were assayed. The enzymes were assayed in 50 mM tris buffer pH 7.5, 5 mM MgCl, and 5 mM KCl which mirrors the final reaction conditions. The activity of NAD(P)H producing or consuming reactions were monitored at 340 nm. The activity of ATP consuming enzymes were monitored using a coupled assay with Zwf and NADP^+ at 340 nm.
To implement the “molecular rheostat” module, GapDH enzyme was engineered that efficiently uses NADP^+. […] Although the cofactor specificity of GsGap has adjusted before by sequence-based design, the mutant only slightly preferred NADP^+ over NAD^+. To more strongly flip the cofactor specificity of GsGap the crystal structure was examined and basic residues introduced into the loop region proximate to the 2′OH of NAD′ that may help stabilize binding of a 2′ phosphate in NADP^+. A series of mutations were made altering residues D34, L35, and T36 of SEQ ID NO:6. The kinetics and specificity of the best enzyme, a D34A/L35R/T36K triple mutant (herein referred to as mGap), were obtained.

Protein | Km [1] [µM] | Km [2] [µM]
G. stearothermophilus glyceraldehyde-3-phosphate dehydrogenase (GsGap, gapDH WT), wild type, SEQ ID NO:6 (Geobacillus stearothermophilus) (protein) MAVKVGINGFGRIGRNVFRAALKNPDIEVVAVNDLTDANTLAHLLKYDSVHGRLDAEVSVNGNNLVVNGKEIIVKAERDPENLAWGEIGVDIVVESTGRFTKREDAAKHLEAGAKKVIISAPAKNEDITIVMGVNQDKYDPKAHHVISNASCTTNCLAPFAKVLHEQFGIVRGMMTTVHSYTNDQRILDLPHKDLRRARAAAESIIPTTTGAAKAVALVLPELKGKLNGMAMRVPTPNVSVVDLVAELEKEVTVEEVNAALKAAAEGELKGILAYSEEPLVSRDYNGSTVSSTIDALSTMVIDGKMVKVVSWYDNETGYSHRVVDLAAYIASKGL | 1500 ± 500 | 
G. stearothermophilus glyceraldehyde-3-phosphate dehydrogenase (GsGap) mutant mGapDH (mGap, gapDH M6), D34A/L35R/T36K relative to SEQ ID NO:6 (Geobacillus … (protein) MAVKVGINGFGRIGRNVFRAALKNPDIEVVAVNARKDANTLAHLLKYDSVHGRLDAEVSVNGNNLVVNGKEIIVKAERDPENLAWGEIGVDIVVESTGRFTKREDAAKHLEAGAKKVIISAPAKNEDITIVMGVNQDKYDPKAHHVISNASCTTNCLAPFAKVLHEQFGIVRGMMTTVHSYTNDQRILDLPHKDLRRARAAAESIIPTTTGAAKAVALVLPELKGKLNGMAMRVPTPNVSVVDLVAELEKEVTVEEVNAALKAAAEGELKGILAYSEEPLVSRDYNGSTVSSTIDALSTMVIDGKMVKVVSWYDNETGYSHRVVDLAAYIASKGL |  | 300 ± 40
